This note sets out measurements from IntAct's records for PubMed 35512704.

The labels stand for the following.
B1: Mothers against decapentaplegic homolog 4 (Homo sapiens), Q13485 (parent)
chain: MDNMSITNTPTSNDACLSIVHSLMCHRQGGESETFAKRAIESLVKKLKEKKDELDSLITAITTNGAHPSKCVTIQRTLDGRLQVAGRKGFPHVIYARLWRWPDLHKNELKHVKYCQYAFDLKCDSVCVNPYHYERVVSPGIDLSGLTLQSNAPSSMMVKDEYVHDFEGQPSLSTEGHSIQTIQHPPSNRASTETYSTPALLAPSESNATSTANFPNIPVASTSQPASILGGSHSEGLLQIASGPQPGQQQNGFTGQPATYHHNSTTTWTGSRTAPYTPNLPHHQNGHLQHHPPMPPHPGHYWPVHNELAFQPPISNHPAPEYWCSIAYFEMDVQVGETFKVPSSCPIVTVDGYVDPSGGDRFCLGQLSNVHRTEAIERARLHIGKGVQLECKGEGDVWVRCLSDHAVFVQSYYLDREAGRAPGDAVHKIYPSAYIKVFDLRQCHRQMQQQAATAQAAAAAQAAAVAGNIPGPGSVGGIAPAISLSAAAGIGVDDLRRLCILRMSFVKGWGPDYPRQSIKETPCWIEIHLHRALQLLDEVLHTMPIADPQPLD
partner: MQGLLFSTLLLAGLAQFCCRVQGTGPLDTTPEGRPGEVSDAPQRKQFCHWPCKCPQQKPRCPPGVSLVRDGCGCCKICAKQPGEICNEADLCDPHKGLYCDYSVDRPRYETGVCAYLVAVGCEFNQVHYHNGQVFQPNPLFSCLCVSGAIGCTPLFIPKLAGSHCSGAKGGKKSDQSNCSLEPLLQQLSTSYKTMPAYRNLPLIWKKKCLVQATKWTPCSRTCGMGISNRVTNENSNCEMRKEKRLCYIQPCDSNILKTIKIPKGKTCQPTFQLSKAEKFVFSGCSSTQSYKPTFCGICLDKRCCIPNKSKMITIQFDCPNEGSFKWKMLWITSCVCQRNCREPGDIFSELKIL
B2: Mothers against decapentaplegic homolog 4 (Homo sapiens), Q13485 (parent)
chain: B1 chain
partner: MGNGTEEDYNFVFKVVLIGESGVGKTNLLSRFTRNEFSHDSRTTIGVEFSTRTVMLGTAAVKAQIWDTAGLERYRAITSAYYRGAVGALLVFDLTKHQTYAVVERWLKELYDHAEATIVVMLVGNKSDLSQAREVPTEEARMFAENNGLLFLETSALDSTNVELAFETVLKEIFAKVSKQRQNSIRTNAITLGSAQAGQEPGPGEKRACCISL
B3: Mothers against decapentaplegic homolog 4 (Homo sapiens), Q13485 (parent)
chain: B1 chain
partner: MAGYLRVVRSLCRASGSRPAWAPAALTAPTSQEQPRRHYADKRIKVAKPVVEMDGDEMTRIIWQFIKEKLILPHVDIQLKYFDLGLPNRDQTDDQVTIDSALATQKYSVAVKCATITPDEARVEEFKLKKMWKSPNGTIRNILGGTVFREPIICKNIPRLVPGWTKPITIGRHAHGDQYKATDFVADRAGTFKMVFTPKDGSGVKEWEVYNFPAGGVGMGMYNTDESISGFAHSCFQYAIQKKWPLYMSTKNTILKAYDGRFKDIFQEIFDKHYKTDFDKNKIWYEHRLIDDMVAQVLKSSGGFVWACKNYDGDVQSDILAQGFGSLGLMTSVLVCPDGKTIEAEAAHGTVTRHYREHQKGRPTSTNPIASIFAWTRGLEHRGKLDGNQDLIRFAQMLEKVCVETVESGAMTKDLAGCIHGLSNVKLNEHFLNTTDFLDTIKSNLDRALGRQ
B4: Mothers against decapentaplegic homolog 4 (Homo sapiens), Q13485 (parent)
chain: B1 chain
partner: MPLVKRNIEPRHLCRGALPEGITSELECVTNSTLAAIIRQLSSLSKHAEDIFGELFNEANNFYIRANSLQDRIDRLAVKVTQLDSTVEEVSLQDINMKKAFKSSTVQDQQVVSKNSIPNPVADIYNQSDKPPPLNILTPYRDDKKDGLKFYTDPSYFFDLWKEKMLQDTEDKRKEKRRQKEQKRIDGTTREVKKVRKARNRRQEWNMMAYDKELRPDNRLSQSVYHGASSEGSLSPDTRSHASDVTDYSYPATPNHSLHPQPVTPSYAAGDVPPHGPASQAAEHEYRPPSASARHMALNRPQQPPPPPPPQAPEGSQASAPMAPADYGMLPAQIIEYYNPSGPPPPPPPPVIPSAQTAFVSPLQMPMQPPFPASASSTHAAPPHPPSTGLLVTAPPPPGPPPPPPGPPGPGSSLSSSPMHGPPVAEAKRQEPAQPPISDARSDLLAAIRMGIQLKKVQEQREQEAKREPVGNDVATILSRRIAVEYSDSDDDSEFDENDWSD
B5: Mothers against decapentaplegic homolog 4 (Homo sapiens), Q13485 (parent)
chain: B1 chain
partner: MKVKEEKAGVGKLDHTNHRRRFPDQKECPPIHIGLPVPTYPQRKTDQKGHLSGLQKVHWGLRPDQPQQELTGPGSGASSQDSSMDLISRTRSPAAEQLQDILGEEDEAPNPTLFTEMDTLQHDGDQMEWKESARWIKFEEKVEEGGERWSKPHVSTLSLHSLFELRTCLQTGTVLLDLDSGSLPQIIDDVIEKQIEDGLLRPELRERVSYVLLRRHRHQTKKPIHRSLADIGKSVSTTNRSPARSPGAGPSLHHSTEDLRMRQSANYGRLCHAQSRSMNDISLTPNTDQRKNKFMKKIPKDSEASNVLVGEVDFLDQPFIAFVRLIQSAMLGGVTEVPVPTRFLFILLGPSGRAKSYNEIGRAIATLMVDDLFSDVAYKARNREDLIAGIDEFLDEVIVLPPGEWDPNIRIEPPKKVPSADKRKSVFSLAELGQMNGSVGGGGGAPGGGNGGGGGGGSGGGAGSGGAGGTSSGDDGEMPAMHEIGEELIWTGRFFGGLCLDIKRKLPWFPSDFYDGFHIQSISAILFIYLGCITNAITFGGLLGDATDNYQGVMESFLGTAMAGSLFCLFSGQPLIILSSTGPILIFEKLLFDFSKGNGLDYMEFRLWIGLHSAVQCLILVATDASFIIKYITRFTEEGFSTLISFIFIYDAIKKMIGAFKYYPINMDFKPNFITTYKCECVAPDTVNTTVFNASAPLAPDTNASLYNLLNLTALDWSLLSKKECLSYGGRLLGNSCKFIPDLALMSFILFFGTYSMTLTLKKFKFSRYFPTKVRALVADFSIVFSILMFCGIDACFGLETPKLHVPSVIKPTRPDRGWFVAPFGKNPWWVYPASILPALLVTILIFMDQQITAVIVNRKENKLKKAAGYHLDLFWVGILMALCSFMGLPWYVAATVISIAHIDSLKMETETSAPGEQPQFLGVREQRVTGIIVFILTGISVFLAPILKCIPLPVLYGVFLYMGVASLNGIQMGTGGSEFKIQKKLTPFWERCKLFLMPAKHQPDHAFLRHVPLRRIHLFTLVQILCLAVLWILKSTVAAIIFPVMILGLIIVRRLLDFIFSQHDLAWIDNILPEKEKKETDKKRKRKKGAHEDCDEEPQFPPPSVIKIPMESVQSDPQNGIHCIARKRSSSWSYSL

In the first experiment the parent is B1. To be noted: with ccn6_human CCN6, O95389.
R361C: the “effect of a mutation on the interaction” value is on record as “with no effect”.

Variants of B1 are the subject of another experiment. To be noted: with ccn6_human CCN6, O95389. This is another data set of the same source.
As to R361H, the “effect of a mutation on the interaction” value is “with no effect”.

The variants in the next experiment derive from B2. The settings on record: with rab25_human RAB25, P57735.
G386D: the “effect of a mutation on the interaction” value was “with no effect”.

A further experiment covers variants of B3. The settings on record: with idhp_human IDH2, P48735.
G386D: the “effect of a mutation on the interaction” value was “with no effect”.

The variants in another experiment derive from B4. To be noted: with wasf3_human WASF3, Q9UPY6.
As for R361C, the “effect of a mutation on the interaction” value is given as “with no effect”.

Another experiment covers variants of B4. To be noted: with wasf3_human WASF3, Q9UPY6. The source holds these as a separate data set.
As for R361H, the “effect of a mutation on the interaction” value is given as “with no effect”.

The next experiment covers variants of B4. The settings on record: with wasf3_human WASF3, Q9UPY6. The source holds these as a separate data set.
For G386D, the “effect of a mutation on the interaction” value is reported as “with no effect”.

The variants in the next experiment derive from B4. The settings on record: with wasf3_human WASF3, Q9UPY6. This is another data set of the same source.
Turning to G386D, the “effect of a mutation on the interaction” value is reported as “increasing interaction strength”.

Another experiment covers variants of B4. The settings on record: with wasf3_human WASF3, Q9UPY6. This is another data set of the same source.
For D351H, the “effect of a mutation on the interaction” value is given as “with no effect”.

Variants of B5 are the subject of another experiment. To be noted: with s4a5_human SLC4A5, Q9BY07.
Take G386D: the “effect of a mutation on the interaction” value is “with no effect”.

Variants of B5 are the subject of a further experiment. To be noted: with s4a5_human SLC4A5, Q9BY07. The source holds these as a separate data set.
In the case of R361C, the “effect of a mutation on the interaction” value is listed as “with no effect”.
